Data: publication doi:10.1101/2024.09.02.610899

Biological target: POTRA domains of Toc75 (Toc75-POTRA) (Chlamydomonas reinhardtii)
Test: SPR

Tic22 (recombinant, His-tagged) (natural protein)
Kd: 5.22 µM
